Assay results taken from the nanobody polyreactivity screen of Harvey et al. (2022).

Assay: yeast display, Sf9 membrane polyspecificity reagent, FACS + sequencing; frameworks hold sequencing errors
Summary of the method: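 Galactose induction of a Saccharomyces cerevisiae BJ5465 synthetic nanobody display library ran 36–48 hours. The cells were then stained for 1 hour at 4 °C with 10% biotinylated, detergent-solubilized Sf9 membrane reagent, pulled down on streptavidin microbeads and FACS-sorted into low and high (top ~1%) gates on expression and reagent-binding fluorescence. Labels for polyreactivity follow the gate of origin.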

Sequence	polyreactivity (PSR sort gate)
QVQLVESGGGLVQAGGSIRLSCAASGSTFFQYAMGWYRQAPGKERELVAAISSRGGRTYYADSVKGSFTISRDNAKNTVYLQMNSLKPEDTAVYYCAVDHLTRSGDGEYWGQGTQVTVSS	high polyreactivity
QVQLVESGGGLVQAGGSLRLSCAASGRIFYRYAMGWYRQAPGKERELVAAISRTGSRTYYADSVKGRFTISRDNAKNTVYLQMNSLKPEDTAVYYCNKVSAPAEFRSRGYWGQGTQVTVSS	high polyreactivity
QVQLVESGGGLVQAGGSLRLSCAASGSIFGYYAMGWYRQAPGKERELVAAINSSGGSTYYADSVKGRFTISRDNAKNTVYLQMNSLKPDDTAVYYCAVRTRYKFNYWGQGTQVTVSS	low polyreactivity
QVQLVESGGGLVQAGGSLRLSCAASGITFYNSAMGLYRQAPGKERELVAAISSSGGSTYYADSVKGRFTISRDNAKNTVYLQMNSLKPEDTAVYYCAAVIVLSSEDTYYYWGQGTQVTVSS	high polyreactivity
QVQLVESGGGLVQAGGSLRLSCAASGSTFGGYAMGWYRQAPGKERELVAGITISVGSTYYADSVKGRFTISRDNAKNTVYLQMNSLKPEDTAVYYCAADGLSWYNYWGQGTQVTVSS	high polyreactivity
QVQLVESGGGLVQAGGMLRLSCAASGRIFGVNAMGWYRQAPGKERELVAVISSGGSTYYADSVKGRFTISRDNAKNTVYVQMNSLKPEDTAVYYCNAVVGRWFPYNLSDYWGQGTQVTVSS	low polyreactivity
QVQLVESWGGLVHAGGSLRLSCAASGSIFDWYAMGWYRQAPGTERELVAAINEGGGSTYYADSVKGRFTISRDNAKNSVYLQMNSLKPEDTAVYYCAAGDYYLQDNYWGQGTQVTVSS	low polyreactivity
QLQLVESGGGLVQAGGSLRLSCAASGRTFQPYAMGWYRQAPGKERELVAAITSIGGSTFYADSVKGRFTISRDNAKNTVYLQMNSLKPEDTAVYYCAADPYTLYWYYWYGTSGFDYWGQGTQVTVSS	low polyreactivity
QVHLVESGGGLVQAGGSLRISGAASGSTFGTYAMGWYRQAPGKERELVAAITSGGSTDYADSVKGRFTISRDNAKNTVYLQMNSLKPEDTAVYYCTARGYGYLGRKGGYSYGYYYWGQGNQVTVSS	low polyreactivity
QVQLVESGGGLVQAGGSLRLSCAASGSIFDRYAMGWYRQAPGKERELVAAISTGGSTNYADSVKGRFTISRDNAKNSVYLQMNSLKPEDTAVYYCAARYLYRMYYWGQGTQVTVSS	low polyreactivity
QVQLVEAGGGLVQAGGSLRLIFASSGSTLYLYVMVWYRQAPGKESELVDVISSSSGRTYYADSVKGRFTISRDNAKNSVYLQMNSLKPEDTAVYYCAADNYVGYHWYNYWGQGTQVTVSS	high polyreactivity
QVQRVESGGALVQAGGSLRLSCAASGRIFGGYAMGWYRQAPGKERELVAAISSRGGSTYYADSVKGRFTISRDNAKNTVYLQMNSLKPEDTAVYYCAADGRVKGWGQGTQVTVSS	high polyreactivity
QVQLVESGVGLVQAGGSLRLSCAASGYTLDNYAMGWYRQAPGKERELVAGITFSGGSTFYADSVKGRFTISRDNAKNTVYLQMNSLKPEDTAVYYCAADAEFQADHKYGYWGQGTQVTVSS	low polyreactivity
QVQLVESGGGLVQAGGSLRLSCAASGRTFRRYAMGWYRQAPGKERELVAAITYRGGSTYYADSVKGRFTISRDNAKNTVYLQMNSLKPEDTAVYYCNKQGNGQLGTTQGRYDYWGQGTQVTVSS	high polyreactivity
QVQLVESGGGLVQAGGSLRLSCAASVSTFGDYTMGWYRQAPGKERELVAAITLTGGSTYYADSVKGRFTISRDNAKNTVYLQMNSLKPEDTAVYYCNTDVIRWVGGTWHRYYYWGQGTQVTVSS	low polyreactivity
QVQLVESGGGLVQAGGSLRLSCAASGSIFSTNAIGGYRQAPGTQRELVAVITGIGGITYYADSVKGRFTISRDNAKKTVYLQRNSLKPDDTAVYYCADDPISEFSWGVKDRYDYWGQGTQVTVSS	low polyreactivity
QVQLVESGGGLVQAGGSLRLSCAASGRTFFPNAMGWYRPAPGKERELVAAITWRGGSTYYADSVKGRFTISRDNAKNTVYLQMNSLKPEDTAVYYCAARDNPRWPRYYRGRTYDYWGQGTQVTVSS	high polyreactivity
HVQLVESGGGLVQAGGSLRLSCAASGSIFGNYVMGWYRQAPGKERELVAAISWSGGTNYADSVKGRFTISRDNAKNTVYLQMKSLKPEDTAVYYCAALSVWSYYTYYYWGQGTQVTVSS	high polyreactivity
QVQLVESGGGLVQAGGSLRLSCAASGSTFDVYAMGWYRQAPGKERELVAVINTSGTRTYYADSVKGRFTISRDNAKNTVYLQMNSLKPEDTAVYYCNAGGHLEMNYWGQGTEVTVSS	low polyreactivity
QVQLVESGGVLVQAGGSLRLSCAASGRTFIFYAMGWYRQAPRKERELVAAITYSGTSTYYADSVKGRFTISRDNAKNTVYLQMNSLKPEDTAVYYCAKDGQRDANYYWGQGTQVTVSS	low polyreactivity
QVQLVESGGGLVQAGGSLRLSCAASGNTFTWYTMGWYRQAPGKERELVAVITSDGSTYYADSVKGRFTISRDNAKNTVYLQMNSLKPEDTAVYYCNALSADWYPEEDYWGQGTQVTVSS	low polyreactivity
HVQLVESGGGLVQAGGSLRLRCAASGFTFYYNAMGWSRQAPGKERELVAAISTRGGNTYYADSVKGRFTISRDYAKNTVYLQRNSLKPEATAVYYCARIIRREGRYDYWGHGTQVTVSS	high polyreactivity

Sequence	polyreactivity (PSR sort gate)
QVQLVESGGGLFQAGGRLLLSCAASGRIFTYNTRGWYRQAPGKEREFVAAISSSSVSTYYADSVKGRITISRDNAKYTVYLQMNCLKPEDTAVYYCAAKRVGYHIGYVYPYGYWGQGTQVTVSS	high polyreactivity
QVQLVESGGGLVQAGGSLRLSCAASGSISSKNAMGWYRQPPGKERQFDAVISGTGGSTYYADSVKGRFTISRDNAKNTVYLQMNSLKPEDTAVYYCAAAASSIVSYGYTWTYGYWGLGTQVTVSS	low polyreactivity
QVQLVESGGGLVQAGGSLRLSCAASGRTFTPYAMGWYRQAPGKERELVAAISIGGPTNYADSVKGRFTISRDNAKNTVYLQMNSLKPEDTADYYCAADSYYLGRDGFGFYAYTYDYWGQGTEVTVSS	low polyreactivity
QVQLVESGGGLVQAGGSLRLSCAASGFIFSIYAMGWYRQAPGKERELVATITYSGGSTYYADSVKGRFTISRDNAKNTVYLQMNSLKPEDTAVYYCNALSKGYYTIGGYSWGQGTQVTVSS	low polyreactivity
QVQLVESGGGLVQAGGSLRLSCAASGIIFAYNAMGWYRQAPGKERELVAAISSGGRTNYADSVKGRFTISRDNAKNTVYLQMNSLKPEDTAVYYCAARPRYYWLGLKIYGYDYWGHGTQVTVSS	high polyreactivity
QVKLVESGGGLVQAGGSLRLRCAASGSIFRFYVMGWYRQAPGKERELVAAISSGGSTDYADSVKGRFTISRDNAKNTVYLQMYSLKPEDTAVYYCGARVRTVRNTYYSWGQGTQVTVSS	high polyreactivity
QVQLVESGGGLVQAGGSLRLSCAASGFIFRYYGMGWYRQAPGKERELVAAITDGGSTTYADSVKGRFTISRDNAKNTVYLQMNSLKPEDTAVYYCNAEAGGFDYYGKTYRYGDYWGQGTQVTVSS	low polyreactivity
QLQLVESGGGLVQAGGSLRLSCAASGFIDAYTMGWYRQAPGKERELVAAITWSGGRTYYADSVKGRFTISRDNAKNTVYIQRNSLKPEDNAVYYCAKDVTPYSPDEDYWGQGSQVTVSS	low polyreactivity
QVQLVESGGGLVQAGGSLRLSCAASGSTFFLYVRGWYRQAPGKERELVAAITSGGRTYYADSVKGRFTISRDNAKNTVYLQMNSLKPEDTAVYNCAADVRRVRVGKYDYWGQGTQVTVSS	high polyreactivity
QVQLVESGGGLVQAGGSLRLSCAASGRTFRWYAMGWYRQAPGKERELVASITWSGGSTYYADSVKGRFTISRDNAKNTVYLQMNSLKPEDTAVYYCAARDRRGAYYYWGQGTQVTVSS	high polyreactivity
QVQLVESGGGLVQAGGSLRLSCAASGLTFDYYDRGGYRQAPGKERELVASITWRGSSTYYADSVKGRFTISRDNAKNTVYLQMNSLKPEDTAVYYCAARPQHFDLDLAYSGFDYWGQGTQVTVSS	high polyreactivity
QVQLVESGGGLVQAGGSLRLSCAASGSTFIKNAMGWYRQAPGKERELVAAISSSASSTYYADSVKGRFTISRDNAKNTVYLQMNSLKPEDTAVYYCAARASRKYNYWGQGTQVTVSS	high polyreactivity
QVQLVESGGGLVQAGGSLRLSCAASGSTYYNALGWYRPAPGKERELVAAIRFRSGSTYYADSVKGRFTISRDNAKNTDYVQMNSLKPEDTAVYYCAADNKRSWRYAYNYWGQGTQVTVSS	high polyreactivity
QVQLVESGGGLVQAGGSLRLSCAASGFIFRIYAMGWYRQAPGKERELVAAITWDGVSTYYADSVKGRFTISRDNAKNTVYLQMNSLKPEDTAVFYCAARKRSYPYYYWGQGTQVNVSS	high polyreactivity
QVHLVESGGGIVQAGGSLRLSCAASGFTFRRYAMGWYRQAAGKERELVATITKGGGRTYYADSVKGRFTISRDNAKNTVYLQMNSLKPEDTAVFYCNASLTYDYNYWGPGTQVTVSS	high polyreactivity
QVQLVESGGGLVQAGGSLRLSCAASGSIFRPNAMGWYRQAPGKERELVAAITFRGSRTYYADSVKGRFTISRDNAKNTVYLQMNSLKPEDTAVYYCNADYSSYWTSYDYWGQGTQVTVSS	high polyreactivity
QVQLVESGGGLVQAGGSLRLSCAASGSTFDVNAMGWYRQAPGKERELVAAITQSGGSTFYADSVKGRFTISRDNAKNTVYLQMNSLKPEDTAVYYWGQGTQVTVSS	low polyreactivity
QVQLVESGGRIVQAGGSLRLSCAASGSTFLYYDMGWYRQAPGKERELVAAITNGGNTYYADSVKGRFTISRDNAKNTVYLQKNSRKPEDTAVYYCAKLYTDAIVWSAYDYWGQGTQVTVSS	low polyreactivity
QVQLVESGGGLVQAGGRLRLSCAASGSTFTDYAMGWYRQAPRKERELVASITSGGRTNYADSVKGRFTITRDNAKNTVYLQMNSLKPEDTAVYYCAADYSVPTSQAYDYWGQGTQVTVSS	low polyreactivity
QVQLVESGGGLVQAGGSLRLSCAASGSTFKYYAKGWYRQAPGKERELVAAISASGGTTYYADSVKGRFTISRDNAKNTVYLQMNSLKPEDTAVYYCAARYLTTFSRTDMEYWGQGTQVTVSS	low polyreactivity
QVQLVESGGGLVQAGGSLRLSCAASGRTFYWNTMGWYRQAPGKERELVAAINYSGGSTYYADSVKGRFTISRDNAKNTVYLQMNSLKPEDTAVYYCAAYFHGYKSLHRARSEYNYWGQGTQVNVSS	high polyreactivity
